Experimental data: patent US20060251644A1
Where two headings read alike, the source gives them in different places.

Experiments:
[1] = target: recombinant human IgE, SE44 (human) (UniProt P01854); assay: ELISA titration on plate-coated SE44 (human IgE); Fab detected with biotin-sheep anti-human Fd and Neutra-avidin-AP (Example 6)
[2] = target: recombinant human IgE, SE44 (human) (UniProt P01854); assay: as above; remark: listed apart in the source

EC50 (read off the curve) [1]: 0.05 µg/mL
EC50 (read off the curve) [2]: 0.04 µg/mL
B1: murine TES-C21 Fab (Fab, from another filing, V domains shown)
VH: QVQLQQSGAELMKPGASVKISCKTTGYTFSMYWLEWVKQRPGHGLEWVGEISPGTFTTNYNEKFKAKATFTADTSSNTAYLQLSGLTSEDSAVYFCARFSHFSGSNYDYFDYWGQGTSLTVSS
VL: DILLTQSPAILSVSPGERVSFSCRASQSIGTNIHWYQQRTDGSPRLLIKYASESISGIPSRFSGSGSGTEFTLNINSVESEDIADYYCQQSDSWPTTFGGGTKLEIK
